# Results published in patent publication US20260176377A1 (Hoffmann-La Roche, published 2026).
# Target: T1, extracellular domain (ECD) of human IL-7Rα fused to biotinylated Fc knob-into-hole (P1AI1009) (human, UniProt P0DOX5 223-448 = IgG part, biotinylated at C-terminal AviTag)
# T1 construct: also called human IL-7Rα-Fc; human IL-7Rα antigen
# Assay: ELISA, soluble VHH supernatants on neutravidin plates with biotinylated IL-7Rα-Fc versus biotinylated Fc, anti-His-HRP
# Description: Round 3 and round 4 enrichment libraries were screened for target specificity vs Fc specificity by ELISA. Individual VHH clones were expressed in 1 ml E. coli cultures in a 96-well plate and supernatants containing soluble VHH were screened for specificity by ELISA. Supernatants were transferred to neutravidin 96-well plates coated with biotinylated Fc (P1AE6073) or target Fc-tagged biotinylated antigen (P1AI1009). Following incubation for 1 hour at 20° C., plates were washed 3 times with PBST and 3 times with PBS. HRP-conjugated anti-His antibody (Sigma, Cat. No: A7058) was added to wells at 1:2000 dilution and plates were incubated for 1 hour at 20° C. Plates were washed 3 times with PBST followed by 3 washes with PBS. Plates were developed by adding 1-Step Ultra TMB-ELISA substrate (Thermo Fisher Scientific, Cat. No: 34028) and reactions were quenched with sulfuric acid. Absorbance at 450 nm was measured using a Tecan infinite M1000 Pro and reference absorbance values were measured at 650 nm. Reference-subtracted absorbance values at 450 nm were represented as stacked bar charts for round 3 library 1 and library 2 (FIG. 40A and B, respectively) and round 4 library 1 and library 2 (FIG. 40C and D, respectively). […] 16 target-specific VHH were selected and subsequently cloned into bispecific heavy chain antibody formats.
row,binding result,Binder
1,binds,"IL-7Rα_8 VHH (VHH, soluble VHH, detected with anti-His antibody) VHH: QVQLVESGGGLVQPGGSLRLSCAASGFTISSWSMKWVRQAPGKGPEWVSYISPGGGSLDYLDSVKGRFTISRDNAKNTVYLQMSNLKSEDTALYWCATGTGPTRGQGTQVTVSS"
2,binds,"IL-7Rα_9 VHH (VHH, soluble VHH, detected with anti-His antibody) VHH: QVQLVESGGGLVQPGGSLRLSCAASGFTISTWSMKWVRQAPGKGPEWVSYISPGGTSLDYQDSVKGRFTISRDNAKNTVYLQMNNLKSEDTALYWCATGTGETRGQGTQVTVSS"
3,binds,"IL-7Rα_11 VHH (VHH, soluble VHH, detected with anti-His antibody) VHH: QVQLVESGGGLVQPGGSLRLSCEASGFTISSWSMKWVRQAPGKGPEWVSYISPGGGSLDYHHSVKGRFTISRDNARNTVYLQMSNLQSEDTALYWCATGTGETRGQGTQVTVSS"
4,binds,"IL-7Rα_15 VHH (VHH, soluble VHH, detected with anti-His antibody) VHH: QVQLVESGGGLVQPGGSLRLSCAASGFTISSWSMKWVRQAPGKGPEWVSYISPGGGSLDYHHSVKGRFTISRDNARNTVYLQMSNLQSEDTALYWCATGTGETRGQGTQVTVSS"
5,binds,"IL-7Rα_12 VHH (VHH, soluble VHH, detected with anti-His antibody) VHH: QVQLVESGGGLVQPGGSLRLSCAASGFTISSRSMKWVRQAPGKGPEWVSYISPGGGTVDYQDSVKGRFTISRDNAKNTVYLQMSNLKSEDTALYWCATGTGPTRGRGTQVTVSS"
6,binds,"IL-7Rα_1 VHH (VHH, soluble VHH, detected with anti-His antibody) VHH: QVQLVESGGGLVQPGGSLRLSCAASGFTFSQRIMSWYRQAPGKERELVASISPFGDGTRYADSVKGRFTISRDNARNQLYLQMNTLKPEDTAVYYCNKRNLEISDDWGQGTQVTVSS"
7,binds,"IL-7Rα_5 VHH (VHH, soluble VHH, detected with anti-His antibody) VHH: QVQLVESGGGLVQPGGSLRLSCAASGFTFSQRIMSWYRQAPGKEHELVASISPFGDGTRYADSVKGRFTISRDNARNQLYLQMNSLEFEDTAVYYCNKRNLDVSDDWGQGTQVTVSS"
8,binds,"IL-7Rα_14 VHH (VHH, soluble VHH, detected with anti-His antibody) VHH: QVQLVESGGGLVQPGGSLRLSCAASGFTFSQRIMSWYRQAPGKERELVASVSPFGDGTRYADSVKGRFTISRDNAKSQLYLQMNNLKFEDTAVYYCNKRNLEISDAWGQGTQVTVSS"
9,binds,"IL-7Rα_2 VHH (VHH, soluble VHH, detected with anti-His antibody) VHH: QVQLVESGGGLVQPGGSLRLSCEVSGIRFSLRNMHWYRQASGRQREWVATITAGGVTGYRDSVKGRFTISRDNAKNTVDLQMNGLQLEDTAVYYCNHGDTAYWGQGTQVTVSS"
10,binds,"IL-7Rα_13 VHH (VHH, soluble VHH, detected with anti-His antibody) VHH: QVQLVESGGGLVRPGGSLRLACAASGIRFSLRNMHWYRQASGRQREWVATITAGGVTGYRDSVKGRFTISRDNAKNTVDLQMNGLQLEDTAVYYCNHGDTAYWGQGTQVTVSS"
11,binds,"IL-7Rα_7 VHH (VHH, soluble VHH, detected with anti-His antibody) VHH: QVQLVESGGGLVQPGGSLRLSCAASGFTFSNYAMSWYRQAPGKERELVASISVFGGGTNYADSVKGRFTISRDNAKNTVYLQMNSLKPEDSAVYYCNKRRYDDYWGQGTQVTVSS"
12,binds,"IL-7Rα_4 VHH (VHH, soluble VHH, detected with anti-His antibody) VHH: QVQLVESGGGLVQPGGSLRLSCTTSGFTFTTYAMKWVRQAPGKGLEWVAFISPAGGITDYADSVKGRFTISRDNAKETLYLRMDSLKPEDTAVYYCARGDSDTNNNRGQGTQVTVSS"
